PMC12077105, “PASTA kinase signaling regulates peptidoglycan synthesis in Enterococcus faecalis by direct inhibition of UDP-N-acetylglucosamine 1-carboxyvinyl transferase activity” (mBio, 2025)

Key:
[1] = target: recombinant MurAB-His6 (E. faecalis) (UniProt Q836E5); test: thermal shift assay; 2.5 uM MurAB with rising molar ratios of test protein, 10x SYPRO Orange, 50 mM Tris, 25 mM NaCl, pH 7.5; change of the MurAB melt temperature
[2] = target: T1, recombinant MurAB-His6 (E. faecalis, UniProt Q836E5 1-430); test: cell-based or functional assay
T1 sequence: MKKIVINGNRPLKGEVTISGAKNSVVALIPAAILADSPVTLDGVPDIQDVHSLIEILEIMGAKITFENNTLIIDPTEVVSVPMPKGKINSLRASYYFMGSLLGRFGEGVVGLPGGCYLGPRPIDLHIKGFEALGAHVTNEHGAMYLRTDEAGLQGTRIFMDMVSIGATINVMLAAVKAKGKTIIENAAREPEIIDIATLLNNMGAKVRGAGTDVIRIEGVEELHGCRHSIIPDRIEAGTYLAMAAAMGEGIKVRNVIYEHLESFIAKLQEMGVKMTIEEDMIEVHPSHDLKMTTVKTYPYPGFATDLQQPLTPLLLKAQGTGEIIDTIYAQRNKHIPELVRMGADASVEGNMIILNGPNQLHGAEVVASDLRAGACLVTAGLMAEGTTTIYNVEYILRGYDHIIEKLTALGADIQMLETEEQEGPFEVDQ

[3] = target: T1, recombinant MurAB-His6; test: thermal shift assay; 2.5 uM MurAB with rising molar ratios of test protein, 10x SYPRO Orange, 50 mM Tris, 25 mM NaCl, pH 7.5; change of the MurAB melt temperature; settings: both partners purified

Molecule: purified recombinant IreB D50A (expressed as His6-SUMO-IreB D50A) (from UniProt Q836B3 1-89) (natural protein)
- maximum shift of the MurAB Tm [1]: 1.5 °C

B1: purified recombinant wild-type IreB (expressed as His6-SUMO-IreB) (natural protein)
chain: MGFTDETVRFDFDDNRKKAISETLETVYRALEEKGYNPINQIVGYLLSGDPAYIPRYQDARNLIRRHERDEIMEELTKYYLANHGIDIK
notes: IreB of Enterococcus faecalis; wild-type allele amplified from OG1RF genomic DNA; IreB for the enzymatic assays was purified in MOPS buffer; also called unphosphorylated IreB; source: E. coli BL21(DE3), purified (Ni-charged resin)
- UNAG-CTase activity of purified MurAB (release of inorganic phosphate) with 10-fold molar excess of IreB: decrease of the reaction rate [2]: ~25%
- maximum shift of the MurAB Tm [3]: 5 °C
